These results are taken from US20160297884A1 (Pfizer, published 2016).

Test [1] deals with T1, Cynomolgus monkey BCMA (cynomolgus monkey).
T1 construct: Soluble analyte in SPR; also called cyBCMA; Cyno BCMA
The experiment in a line: SPR, IgG immobilised, cyno BCMA analyte. A digest of the protocol:
(§1)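 Binding was run at 37° C or 25° C with species-specific BCMA (human or cyno) flowed over immobilized IgG in a single-cycle series of 0.08, 0.4, 2, 10, 50 nM.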
A general note: In SPR one partner is held on a chip, and binding of the other changes the refractive index at the surface.

For test [2], the target named is T2, Human BCMA (human, UniProt Q02223 1-54, limits assumed).
T2 construct: also called huBCMA; B-cell maturation antigen
T2 sequence (looked up): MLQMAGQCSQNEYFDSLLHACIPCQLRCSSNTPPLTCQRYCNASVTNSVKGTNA
The experiment in a line: SPR, IgG immobilised, human BCMA analyte. A digest of the protocol: as §1

Test [3] concerns the target T3, cynomolgus monkey BCMA (cynomolgus monkey, UniProt A0A2K5UD97 1-53).
T3 construct: Soluble analyte in SPR; construct not described; also called cyBCMA; Cyno BCMA
The experiment in a line: SPR, IgG immobilised, 37 C. On the procedure: (§2) All experiments were performed on a Bio-Rad Proteon XPR36 surface Plasmon resonance biosensor (Bio-Rad, Hercules, Calif.). […] The analysis temperature for the immobilization was 25° C. and the running buffer was HBS-T+(10 mM HEPES, 150 mM NaCl, 0.05% Tween-20, pH 7.4). Channels were activated in the analyte (horizontal) direction by injecting a mixture of 1 mM ECD and 0.25 mM NHS for 3 minutes at a flow rate of 30 μL/min. IgGs were immobilized on the activated spots by injecting them in the ligand (vertical) direction at 20 μg/mL in 10 mM Acetate pH 4.5 buffer for 1.5 minutes at […]. The activated surfaces were blocked by injecting 1M ethanolamine, pH 8.5 in the analyte direction for 3 minutes at 30 μL/min.
(§3) The analysis temperature for the BCMA binding analysis was 37° C. or 25° C. in a running buffer of HBS-T+, supplemented with 1 mg/mL BSA. A kinetic titration method was employed for the interaction analysis as described in Abdiche, et al. Human BCMA (huBCMA) or cynomolgus monkey BCMA (cyBCMA) analyte was injected in the analyte direction using a series of injections from low to high concentration. The concentrations used were 0.08 nM, 0.4 nM, 2 nM, 10 nM and 50 nM (a 5-membered series, with a 5-fold dilution factor and top concentration of 50 nM). The association time for a given analyte dilution was two minutes. Immediately after the 50 nM BCMA injection, dissociation was monitored for 2 hours.
(§4) The sensorgrams were double-referenced and fit to a 1:1 Langmuir with mass transport kinetic titration model in BIAevaluation Software version 4.1.1 (GE Lifesciences, Piscataway, N.J.).

The target of test [4] is T4, Human BCMA (human, UniProt Q02223 1-54, limits assumed).
T4 construct: Soluble analyte in SPR; construct not described; also called huBCMA; B-cell maturation antigen
T4 sequence (looked up): T2 sequence (looked up)
The experiment in a line: SPR, IgG immobilised, 37 C. On the procedure: as §2, §3, §4

Changes are numbered by the printed parent chain.

T3 sequence (A0A2K5UD97 entry or part of it): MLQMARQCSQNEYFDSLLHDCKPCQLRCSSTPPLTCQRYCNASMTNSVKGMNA

B1: COMBO_Rd4_6nM_C11 (antibody, V domains shown)
VH: EVQLLESGGGLVQPGGSLRLSCAASGFTFSSYPMSWVRQAPGKGLEWVSAIGGSGGSLGYADSVKGRFTISRDNSKNTLYLQMNSLRAEDTAVYYCARYWPMDSWGQGTLVTVSS
VL: EIVLTQSPGTLSLSPGERATLSCRASQSVSPLYLAWYQQKPGQAPRLLMYDASIRATGIPDRFSGSGSGTDFTLTISRLEPEDFAVYYCQQYKAWPLTFGQGTKVEIK
notes: IgG
One may read the Kd as the constant that tells how readily two partners part at equilibrium. The koff is the rate constant with which the complex falls apart. Broadly, the kon is the rate constant with which the complex forms. In test [1], B1 had a Kd of 0.156 nM, a koff of 0.000412 s⁻¹ and a kon of 2.64e+06 M⁻¹ s⁻¹. Besides, in test [2], the affinity, expressed as Kd, was 0.018 nM; the koff was found to be 0.000124 s⁻¹; the kon stood at 6.74e+06 M⁻¹ s⁻¹.

B2: COMBO_Rd4_6nM_C12 (antibody, V domains shown)
VH: EVQLLESGGGLVQPGGSLRLSCAASGFTFSSYPMSWVRQAPGKGLEWVSAALGSGGSTYYADSVKGRFTISRDNSKNTLYLQMNSLRAEDTAVYYCARYWPMDSWGQGTLVTVS
VL: B1 VL with P31A, L32S, K93M, A94S
notes: IgG
As for B2, in test [1], the affinity, expressed as Kd, was 0.148 nM; the koff was 0.000486 s⁻¹; the kon was 3.29e+06 M⁻¹ s⁻¹. Also, in test [2], binding was put at a Kd of 0.02 nM, the koff stood at 0.00027 s⁻¹ and the kon was determined as 1.38e+07 M⁻¹ s⁻¹.

B3: A02_Rd4_0.6nM_C18 (antibody, V domains shown)
VH: B1 VH with P33A, S35N, I51V, G52L, G53D, L58T, G59Y, D103S, S104L
VL: B1 VL with P31E, K93F, A94G
notes: IgG
In test [1], B3 showed a Kd of 0.197 nM, a koff of 0.000639 s⁻¹ and a kon of 3.24e+06 M⁻¹ s⁻¹. In test [2], this molecule gave a Kd of 0.048 nM, a koff of 0.000229 s⁻¹ and a kon of 4.73e+06 M⁻¹ s⁻¹.

B4: COMBO_Rd4_0.6nM_C22 (antibody, V domains shown)
VH: B1 VH with P33A, S35N, G52S, G53D, L58R, G59W, A97T, S104I
VL: B1 VL with Q27V, S28R, P31S, L32T, K93M, A94K
notes: IgG; also called COM22
Consider B4, for which, in test [1], the Kd was determined as 0.05 nM, the koff was found to be 6.66e-05 s⁻¹ and the kon stood at 1.34e+06 M⁻¹ s⁻¹. Also, in test [2], binding was characterised by a dissociation constant (Kd) of 0.036 nM, the koff turned out to be 7.15e-05 s⁻¹ and the kon turned out to be 1.97e+06 M⁻¹ s⁻¹.

B5: COMBO_Rd4_6nM_C22 (antibody, V domains shown)
VH: B1 VH with P33A, S35N, I51C, G52L, G53D, L58T, G59Y
VL: B1 VL with P31S, L32S, K93Q, A94G
notes: IgG
In test [1], B5 registered a Kd of 0.972 nM, a koff of 0.00165 s⁻¹ and a kon of 1.7e+06 M⁻¹ s⁻¹. Besides, in test [2], binding was characterised by a dissociation constant (Kd) of 0.256 nM, the koff came to 0.000775 s⁻¹ and the kon was determined as 3.03e+06 M⁻¹ s⁻¹.

B6: COMBO_Rd4_6nM_C21 (antibody, V domains shown)
VH: B1 VH with G59P
VL: B1 VL with P31A, L32A, K93M, A94C
notes: IgG
In test [1], B6 returned a Kd of 0.078 nM, a koff of 0.000248 s⁻¹ and a kon of 3.17e+06 M⁻¹ s⁻¹. In test [2], the affinity, expressed as Kd, was 0.006 nM; the koff worked out at 7.34e-05 s⁻¹; the kon came to 1.17e+07 M⁻¹ s⁻¹.

B7: P5C1_VHVL (antibody, V domains shown)
VH: B1 VH with L58T, G59Y
VL: B1 VL with P31S, L32T, M49I, I54S, T57P, K93S, A94T, W95S
notes: IgG; also called PC1
Turning to B7, in test [1], binding was put at a Kd of 15.2 nM, the koff was found to be 0.0538 s⁻¹ and the kon was 3.53e+06 M⁻¹ s⁻¹. In test [2], the Kd amounted to 5.99 nM, the koff came out at 0.0692 s⁻¹ and the kon stood at 1.16e+07 M⁻¹ s⁻¹.

B8: P5A2_VHVL (antibody, V domains shown)
VH: B1 VH with P33A, S35N, G52S, G53D, L58T, G59Y, S104I
VL: B1 VL with P31S, L32S, K93G, A94S
notes: IgG
As to B8, in test [1], binding was put at a Kd of 10.2 nM, the koff was found to be 0.0164 s⁻¹ and the kon turned out to be 1.61e+06 M⁻¹ s⁻¹. In test [2], this molecule yielded a Kd of 5.57 nM, a koff of 0.0387 s⁻¹ and a kon of 6.96e+06 M⁻¹ s⁻¹.

B9: COMBO_Rd4_6nM_C25 (antibody, V domains shown)
VH: B1 VH with L58T, G59Y, S104P
VL: B1 VL with P31S, L32P, K93Q, A94S
notes: IgG
On to B9, for which, in test [1], the Kd is 0.079 nM, the koff is 0.000226 s⁻¹ and the kon is 2.85e+06 M⁻¹ s⁻¹. For the same molecule, in test [2], the Kd worked out at 0.014 nM, the koff came to 0.000113 s⁻¹ and the kon was 7.98e+06 M⁻¹ s⁻¹.

B10: L3.PY/H2.DY (antibody, V domains shown)
VH: EVQLLESGGGLVQPGGSLRLSCAASGFTFGSYAMTWVRQAPGKGLEWVSAIDYSGGNTFYADSVKGRFTISRDNSKNTLYLQMNSLRAEDTAVYYCARVSPIASGMDYWGQGTLVTVSS
VL: EIVLTQSPGTLSLSPGERATLSCRASQSVSSSYLAWYQQKPGQAPRLLIYGASSRATGIPDRFSGSGSGTDFTLTISRLEPEDFAVYYCQHYPYPPSFTFGQGTKVEIK
notes: IgG
For B10, in test [3], the Kd turned out to be 2.76 nM, the “T ½” value is 1.87 min, the koff was determined as 0.00618 s⁻¹ and the kon is 2.24e+06 M⁻¹ s⁻¹. Besides, in test [4], the affinity, expressed as Kd, was 0.53 nM; the “T ½” value stood at 8.37 min; the koff was 0.00138 s⁻¹; the kon stood at 2.6e+06 M⁻¹ s⁻¹.

B11: L3.PY/H2.QL (antibody, V domains shown)
VH: B10 VH with D52S, Y53G, S63Q, V64L
VL: B10 VL
notes: IgG
Consider B11, for which, in test [3], the Kd was 6.16 nM, the “T ½” value stood at 0.91 min, the koff was determined as 0.0126 s⁻¹ and the kon was determined as 2.05e+06 M⁻¹ s⁻¹. In test [4], binding was put at a Kd of 0.82 nM, the “T ½” value came to 5.31 min, the koff was found to be 0.00218 s⁻¹ and the kon stood at 2.64e+06 M⁻¹ s⁻¹.

B12: L3.PY/H3.AQ (antibody, V domains shown)
VH: B10 VH with D52S, Y53G, S104A, G105Q
VL: B10 VL
notes: IgG
Turning to B12, in test [3], the affinity, expressed as Kd, was 1.94 nM; the “T ½” value came to 2.14 min; the koff amounted to 0.00539 s⁻¹; the kon came out at 2.77e+06 M⁻¹ s⁻¹. In addition, in test [4], binding was characterised by a dissociation constant (Kd) of 0.56 nM, the “T ½” value came to 6.69 min, the koff was 0.00173 s⁻¹ and the kon was determined as 3.08e+06 M⁻¹ s⁻¹.

B13: L3.PY/H2.YQ (antibody, V domains shown)
VH: B10 VH with D52S, S54Q
VL: B10 VL
notes: IgG
B13: in test [3], the Kd amounted to 2.53 nM, the “T ½” value amounted to 1.86 min, the koff came to 0.00621 s⁻¹ and the kon turned out to be 2.46e+06 M⁻¹ s⁻¹. For the same molecule, in test [4], the Kd worked out at 0.6 nM, the “T ½” value is 7.41 min, the koff is 0.00156 s⁻¹ and the kon turned out to be 2.58e+06 M⁻¹ s⁻¹.

B14: L3.PY/H3.AE (antibody, V domains shown)
VH: B10 VH with D52S, Y53G, S104A, G105E
VL: B10 VL
notes: IgG
For the molecule B14, in test [3], binding was characterised by a dissociation constant (Kd) of 1.79 nM, the “T ½” value came to 2.29 min, the koff was determined as 0.00504 s⁻¹ and the kon amounted to 2.82e+06 M⁻¹ s⁻¹. In test [4], binding was characterised by a dissociation constant (Kd) of 0.42 nM, the “T ½” value stood at 8.32 min, the koff was 0.00139 s⁻¹ and the kon is 3.29e+06 M⁻¹ s⁻¹.

B15: L3.PY/H2.LT (antibody, V domains shown)
VH: B10 VH with D52S, Y53L, S54T
VL: B10 VL
notes: IgG
Consider B15, for which, in test [3], the affinity, expressed as Kd, was 3.63 nM; the “T ½” value turned out to be 1.53 min; the koff is 0.00757 s⁻¹; the kon worked out at 2.09e+06 M⁻¹ s⁻¹. Moreover, in test [4], the Kd came to 0.54 nM, the “T ½” value stood at 8.95 min, the koff amounted to 0.00129 s⁻¹ and the kon came to 2.4e+06 M⁻¹ s⁻¹.

B16: L3.PY/H2.QR (antibody, V domains shown)
VH: B10 VH with D52S, Y53G, S63Q, V64R
VL: B10 VL
notes: IgG
Turning to B16, in test [3], the affinity, expressed as Kd, was 3.02 nM; the “T ½” value was found to be 1.76 min; the koff was 0.00658 s⁻¹; the kon was found to be 2.18e+06 M⁻¹ s⁻¹. Moreover, in test [4], binding was characterised by a dissociation constant (Kd) of 0.46 nM, the “T ½” value was 9.75 min, the koff is 0.00119 s⁻¹ and the kon worked out at 2.56e+06 M⁻¹ s⁻¹.

B17: L3.PY/H2.HA (antibody, V domains shown)
VH: B10 VH with D52S, Y53H, S54A
VL: B10 VL
notes: IgG
On to B17, for which, in test [3], the Kd came out at 3.79 nM, the “T ½” value was 1.53 min, the koff is 0.00755 s⁻¹ and the kon came to 1.99e+06 M⁻¹ s⁻¹. Also, in test [4], the Kd was 0.6 nM, the “T ½” value amounted to 7.89 min, the koff stood at 0.00147 s⁻¹ and the kon turned out to be 2.43e+06 M⁻¹ s⁻¹.
